Assay results published in patent US8084213, “Selection” (Domantis Limited).

Experiments:
[1] = target: T1, scArc-HA (pIE3 series, single-chain Arc repressor dimer) (Phage P22); assay: co-capture of DNA on anti-HA 3F10 surface, PCR detection; conditions: tags: C-terminal HA; chain copies: 2 scArc per operator (stated)
T1 chain: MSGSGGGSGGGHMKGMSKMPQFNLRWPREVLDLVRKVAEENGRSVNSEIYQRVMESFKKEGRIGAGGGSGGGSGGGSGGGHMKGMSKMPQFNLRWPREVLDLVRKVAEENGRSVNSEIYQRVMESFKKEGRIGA
Method: (§1) In a typical solution expression experiment 1 μl of 1.7 nM template in 0.2 mg/ml tRNA is added to 25 μl EcoPro T7 in vitro translation mix Novagen), supplemented with 0.75 μl of 100 mM oxidized glutathione (Sigma), and incubated at 25° C. for four hours. During the translation reaction the streptavidin-coated PCR tubes, cut from Strep Thermofast 96-well plates (Abgene), are first incubated at room temperature for three hours with 50 μl of at least 40 nM biotinylated target protein in PBS. The coating buffer is thereafter removed and any remaining free biotin-binding sites are blocked with a 15 min pulse of 50 μg/ml biotinylated BSA in PBS. The pre-coated wells are thereafter three times washed with PBS and then filled with 100 μl of binding buffer C+ (100 mM KCl, 20 mM Tris, 5 mM MgCl_2, 0.05% Tween 20, 0.05 mM EDTA, 1% BSA). Upon completion of the translation reaction the products are diluted in Buffer C+ and applied to the pre-coated and blocked PCR tubes, allowed to bind for 30 min at room temperature and washed 4 times with 150 μl of Buffer C+. […]

[2] = target: T2, scArc-HA (pIE2 series, single-chain Arc repressor dimer) (Phage P22); assay: co-capture of DNA on anti-HA 3F10 surface, PCR detection; buffer C+ 100 mM KCl, 5 mM MgCl2, room temp; conditions: tags: C-terminal HA; chain copies: 2 scArc per operator (stated)
T2 chain: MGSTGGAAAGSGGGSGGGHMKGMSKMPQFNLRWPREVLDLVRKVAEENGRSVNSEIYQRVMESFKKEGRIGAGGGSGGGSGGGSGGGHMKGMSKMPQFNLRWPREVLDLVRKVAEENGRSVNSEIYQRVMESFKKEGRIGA
Method: as §1

Vh(DOM1h-10-27)-scArc-HA = Vh(DOM1h-10-27)-scArc-HA (Phage P22 / human Vh); assay: DNA co-captured on protein A and human TNF receptor, not BSA; conditions: tags: N-terminal Vh dAb fusion, C-terminal HA; chain copies: 2 scArc per operator (inferred)
Method: The functional activity of the V_H(DOM1h-10-27)-scArc fusion protein can be assessed by PCR amplification of the DNA co-captured during the V_H-dependent immunoprecipitation of the in vitro translation reaction product. As in the case of $V_\kappa$-scArc fusion constructs, 1 µl of 1.7 nM template in 0.2 mg/ml tRNA is added to 25 µl EcoPro T7 in vitro translation mix (Novagen), supplemented with 0.75 µl of 100 mM oxidized glutathione (Sigma), and incubated at 25° C. for four hours. During the translation reaction the streptavidin-coated PCR tubes, cut from Strep Thermofast 96-well plates (Abgene), are first incubated at room temperature for three hours with 50 µl of at least 40 nM biotinylated target protein in PBS. The coating buffer is thereafter removed and any remaining free biotin-binding sites are blocked with a 15 min pulse of 50 µg/ml biotinylated BSA in PBS. The precoated wells are thereafter three times washed with PBS and then filled with 100 µl of binding buffer C+ (100 mM KCl, 20 mM Tris, 5 mM MgCl_2, 0.05% Tween 20, 0.05 mM EDTA, 1% BSA). Upon completion of the translation reaction the products are diluted in Buffer C+ and applied to the pre-coated and blocked PCR tubes, allowed to bind for 30 min at room temperature and washed 4 times with 150 µl of Buffer C+. […]

Measured: binding result

B1: Arc operator, one copy, on linear genetic element (dsDNA)
DNA 1: ATGATAGAAGCACTCTACTAT
DNA 2: ATAGTAGAGTGCTTCTATCAT
binds: all assays above
